Experimental findings from the supplement of paper PMC9112550, “Optimization of the antimicrobial peptide Bac7 by deep mutational scanning” (BMC Biology, 2022) are described below.
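Further: peptides expressed intracellularly from a pBAD plasmid library in pooled LB shake-flask culture, induced with 0.3% L-arabinose, DNA abundance read by NGS, three biological replicates, DESeq2 with apeglm shrinkage.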

The series deals with Escherichia coli TOP10. In words: shrunken log2 fold change of peptide-encoding DNA abundance (4.5 h post-induction vs induction); higher = less antimicrobial activity (less host growth inhibition). The settings on record: time post-induction: 4.5 h; library: site-saturation at positions 5, 18, 19, 20.
RRIRERPPRLPRPRPRPHGTPRP: the “shrunken log2 fold change” value was determined as 0.0284.

Regarding RRIRPRPPRLPRPRPRPMTEPRP, the “shrunken log2 fold change” value was -0.0153.

For the sequence RRIRVRPPRLPRPRPRPPKGPRP, the “shrunken log2 fold change” value amounted to 0.18.

RRIRMRPPRLPRPRPRPFYMPRP: the “shrunken log2 fold change” value is -0.054.

Consider RRIRFRPPRLPRPRPRPQYRPRP, for which the “shrunken log2 fold change” value was -0.171.

As to RRIRNRPPRLPRPRPRPFNNPRP, the “shrunken log2 fold change” value was -0.193.

Regarding RRIRQRPPRLPRPRPRPAMKPRP, the “shrunken log2 fold change” value is -0.204.

As to RRIRVRPPRLPRPRPRPYLPPRP, the “shrunken log2 fold change” value is -0.453.

On to RRIRFRPPRLPRPRPRPDSIPRP, for which the “shrunken log2 fold change” value is -0.0087.

On to RRIRVRPPRLPRPRPRPWGCPRP, for which the “shrunken log2 fold change” value amounted to 0.076.

RRIRTRPPRLPRPRPRPTNVPRP: the “shrunken log2 fold change” value was 0.118.

Turning to RRIRIRPPRLPRPRPRPKSMPRP, the “shrunken log2 fold change” value was -0.208.

For the sequence RRIRVRPPRLPRPRPRPEVVPRP, the “shrunken log2 fold change” value is -0.0305.

RRIRARPPRLPRPRPRPPECPRP: the “shrunken log2 fold change” value is 0.327.

Take RRIRHRPPRLPRPRPRPVKEPRP: the “shrunken log2 fold change” value was -0.00992.

With RRIRNRPPRLPRPRPRPHEAPRP, the “shrunken log2 fold change” value was -0.0663.

Consider RRIRLRPPRLPRPRPRPYMAPRP, for which the “shrunken log2 fold change” value is -0.608.

Turning to RRIRKRPPRLPRPRPRPPMQPRP, the “shrunken log2 fold change” value is 0.439.

As to RRIRARPPRLPRPRPRPTISPRP, the “shrunken log2 fold change” value is 0.0389.

RRIRIRPPRLPRPRPRPYLGPRP: the “shrunken log2 fold change” value is -0.279.

As to RRIRSRPPRLPRPRPRPKCLPRP, the “shrunken log2 fold change” value amounted to 0.0157.

As for RRIRLRPPRLPRPRPRPTIFPRP, the “shrunken log2 fold change” value is 0.205.

Take RRIRQRPPRLPRPRPRPQAFPRP: the “shrunken log2 fold change” value was -0.0347.

For RRIRIRPPRLPRPRPRPTRDPRP, the “shrunken log2 fold change” value was -0.0265.

Regarding RRIRNRPPRLPRPRPRPNINPRP, the “shrunken log2 fold change” value was -0.638.

In the case of RRIRHRPPRLPRPRPRPYPIPRP, the “shrunken log2 fold change” value was -0.887.

In the case of RRIRTRPPRLPRPRPRPQCLPRP, the “shrunken log2 fold change” value is 0.0552.

With RRIRYRPPRLPRPRPRPPPTPRP, the “shrunken log2 fold change” value is 0.867.

For the sequence RRIRIRPPRLPRPRPRPCISPRP, the “shrunken log2 fold change” value was -0.32.

Turning to RRIRCRPPRLPRPRPRPYPFPRP, the “shrunken log2 fold change” value was -0.241.

On to RRIRGRPPRLPRPRPRPTNIPRP, for which the “shrunken log2 fold change” value amounted to 0.298.

In the case of RRIRDRPPRLPRPRPRPNSHPRP, the “shrunken log2 fold change” value worked out at 0.0526.

Consider RRIRFRPPRLPRPRPRPGKHPRP, for which the “shrunken log2 fold change” value is -0.294.

Consider RRIRLRPPRLPRPRPRPECDPRP, for which the “shrunken log2 fold change” value was -0.00082.

For RRIRIRPPRLPRPRPRPRDKPRP, the “shrunken log2 fold change” value is 0.115.

On to RRIRGRPPRLPRPRPRPSCWPRP, for which the “shrunken log2 fold change” value was 0.413.

On to RRIRLRPPRLPRPRPRPIWAPRP, for which the “shrunken log2 fold change” value stood at 0.136.

As to RRIRYRPPRLPRPRPRPMYGPRP, the “shrunken log2 fold change” value is -0.00999.

For RRIRPRPPRLPRPRPRPTCFPRP, the “shrunken log2 fold change” value was 0.0572.

Turning to RRIRKRPPRLPRPRPRPIPCPRP, the “shrunken log2 fold change” value was found to be 0.276.

Regarding RRIRIRPPRLPRPRPRPNIFPRP, the “shrunken log2 fold change” value is -0.319.

As to RRIRHRPPRLPRPRPRPECIPRP, the “shrunken log2 fold change” value was -0.00992.

Regarding RRIRERPPRLPRPRPRPDPMPRP, the “shrunken log2 fold change” value is -0.0562.

For RRIRMRPPRLPRPRPRPSGQPRP, the “shrunken log2 fold change” value was found to be 0.602.

With RRIRRRPPRLPRPRPRPTIIPRP, the “shrunken log2 fold change” value was -0.159.

As for RRIRHRPPRLPRPRPRPKYHPRP, the “shrunken log2 fold change” value is -0.773.

On to RRIRQRPPRLPRPRPRPQGAPRP, for which the “shrunken log2 fold change” value is -0.0289.

Consider RRIRTRPPRLPRPRPRPWWEPRP, for which the “shrunken log2 fold change” value amounted to 0.00671.

For RRIRRRPPRLPRPRPRPDSLPRP, the “shrunken log2 fold change” value turned out to be 0.0868.

RRIRMRPPRLPRPRPRPMTPPRP: the “shrunken log2 fold change” value was 0.582.

For RRIRLRPPRLPRPRPRPGLHPRP, the “shrunken log2 fold change” value is -0.401.

In the case of RRIRERPPRLPRPRPRPRDGPRP, the “shrunken log2 fold change” value was 0.237.

As for RRIRARPPRLPRPRPRPALTPRP, the “shrunken log2 fold change” value is 0.642.

As to RRIRGRPPRLPRPRPRPGRGPRP, the “shrunken log2 fold change” value turned out to be 0.773.

RRIRARPPRLPRPRPRPGHGPRP: the “shrunken log2 fold change” value came out at 0.377.

Regarding RRIRYRPPRLPRPRPRPQSCPRP, the “shrunken log2 fold change” value came out at 0.0148.

As for RRIRIRPPRLPRPRPRPWGIPRP, the “shrunken log2 fold change” value was -0.109.

Turning to RRIRFRPPRLPRPRPRPEDQPRP, the “shrunken log2 fold change” value stood at 0.502.

Take RRIRWRPPRLPRPRPRPMLFPRP: the “shrunken log2 fold change” value is -0.00681.

Take RRIRRRPPRLPRPRPRPAEEPRP: the “shrunken log2 fold change” value was found to be 0.618.

Turning to RRIRGRPPRLPRPRPRPSLAPRP, the “shrunken log2 fold change” value came out at 1.09.

On to RRIRQRPPRLPRPRPRPRECPRP, for which the “shrunken log2 fold change” value worked out at 0.147.

RRIRGRPPRLPRPRPRPNDHPRP: the “shrunken log2 fold change” value was found to be 0.143.

On to RRIRKRPPRLPRPRPRPRGNPRP, for which the “shrunken log2 fold change” value is 0.258.

In the case of RRIRTRPPRLPRPRPRPFLEPRP, the “shrunken log2 fold change” value is -0.417.

RRIRMRPPRLPRPRPRPVWNPRP: the “shrunken log2 fold change” value is -0.0831.

As for RRIRNRPPRLPRPRPRPKKYPRP, the “shrunken log2 fold change” value is -0.69.

RRIRMRPPRLPRPRPRPVKSPRP: the “shrunken log2 fold change” value was 0.023.

For RRIRCRPPRLPRPRPRPIHTPRP, the “shrunken log2 fold change” value is -0.527.

RRIRGRPPRLPRPRPRPRCAPRP: the “shrunken log2 fold change” value was determined as 1.09.

With RRIRRRPPRLPRPRPRPHFIPRP, the “shrunken log2 fold change” value was -0.0325.

Turning to RRIRGRPPRLPRPRPRPRTEPRP, the “shrunken log2 fold change” value was 0.755.

In the case of RRIRMRPPRLPRPRPRPDMPPRP, the “shrunken log2 fold change” value is -0.0178.

Consider RRIRNRPPRLPRPRPRPQEKPRP, for which the “shrunken log2 fold change” value was -0.198.

Consider RRIRCRPPRLPRPRPRPNGLPRP, for which the “shrunken log2 fold change” value is -0.132.

As to RRIRGRPPRLPRPRPRPKMGPRP, the “shrunken log2 fold change” value stood at 1.21.

RRIRERPPRLPRPRPRPRVTPRP: the “shrunken log2 fold change” value came to 0.107.

Take RRIRIRPPRLPRPRPRPWCHPRP: the “shrunken log2 fold change” value is -0.122.

For RRIRVRPPRLPRPRPRPWAEPRP, the “shrunken log2 fold change” value is -0.0172.

With RRIRGRPPRLPRPRPRPKCHPRP, the “shrunken log2 fold change” value came out at 0.78.

With RRIRPRPPRLPRPRPRPWFLPRP, the “shrunken log2 fold change” value was -0.458.

As for RRIRFRPPRLPRPRPRPGSWPRP, the “shrunken log2 fold change” value stood at 0.244.

For RRIRWRPPRLPRPRPRPMLMPRP, the “shrunken log2 fold change” value was -0.0339.

Consider RRIRSRPPRLPRPRPRPPDYPRP, for which the “shrunken log2 fold change” value was -0.0864.

As to RRIRQRPPRLPRPRPRPIKNPRP, the “shrunken log2 fold change” value is -0.186.

Turning to RRIRHRPPRLPRPRPRPQAIPRP, the “shrunken log2 fold change” value was -0.119.

In the case of RRIRPRPPRLPRPRPRPAEVPRP, the “shrunken log2 fold change” value is -0.0315.

Consider RRIRFRPPRLPRPRPRPRLGPRP, for which the “shrunken log2 fold change” value was found to be 0.347.

With RRIRSRPPRLPRPRPRPRETPRP, the “shrunken log2 fold change” value came to 0.124.

Turning to RRIRYRPPRLPRPRPRPGGLPRP, the “shrunken log2 fold change” value is 3.02.

For the sequence RRIRYRPPRLPRPRPRPGFNPRP, the “shrunken log2 fold change” value is -0.46.
